Source: article PMC8503523, “Lilium regale Wilson WRKY2 Regulates Chitinase Gene Expression During the Response to the Root Rot Pathogen Fusarium oxysporum”

Tests used:
LrWRKY2 [1] = biological target: T1, LrWRKY2 (Lilium regale Wilson, UniProt A0A894THB0 1-343); assay: EMSA; 0.5 ug protein in 20 uL with 7 uL binding buffer (as printed: 100 mM Tris, 500 mM KCl, 10 mM DTT, 50% glycerol, 100 mM MgCl2, 1% NP-40, 1 M KCl, 200 mM EDTA, 1); details: protein: recombinant, tags: His (pET-32a fusion)
T1 sequence: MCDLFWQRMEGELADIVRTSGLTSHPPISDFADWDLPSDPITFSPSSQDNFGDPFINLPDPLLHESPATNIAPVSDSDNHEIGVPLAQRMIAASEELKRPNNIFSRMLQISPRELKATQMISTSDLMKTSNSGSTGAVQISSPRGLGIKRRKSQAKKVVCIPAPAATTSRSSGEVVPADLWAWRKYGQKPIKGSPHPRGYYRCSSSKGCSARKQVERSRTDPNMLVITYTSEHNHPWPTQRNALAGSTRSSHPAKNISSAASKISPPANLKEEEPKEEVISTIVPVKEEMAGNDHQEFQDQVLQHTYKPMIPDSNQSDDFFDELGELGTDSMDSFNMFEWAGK

LrWRKY2 [2] = biological target: T1, LrWRKY2; assay: competition EMSA; 50-fold excess over biotin-labeled N1; shift less intense; 0.5 ug protein in 20 uL with 7 uL binding buffer (as printed: 100 mM Tris, 500 mM KCl, 10 mM DTT, 50% glycerol, 100 mM MgCl2, 1% NP-40, 1 M KCl, 200 mM EDTA, 1); details: protein: recombinant; tags: His (pET-32a fusion); (only one strand printed; duplex implied by 50-bp)

B1: LrCHI2 promoter W-box probe (dsDNA)
DNA 1: GGCAAACTTTTAGGCCAAGAGATTGACTAGAACCCTCACAATCTCTATAT
DNA 2: ATATAGAGATTGTGAGGGTTCTAGTCAATCTCTTGGCCTAAAAGTTTGCC
B1: binds (LrWRKY2 [1]; (only one strand printed; duplex implied by 50-bp)).

B2: LrCHI2 promoter mutant W-box probe (dsDNA)
DNA 1: GGCAAACTTTTAGGCCAAGAGATTACCTAGAACCCTCACAATCTCTATAT
DNA 2: ATATAGAGATTGTGAGGGTTCTAGGTAATCTCTTGGCCTAAAAGTTTGCC
B2: no binding (LrWRKY2 [1]).

B3: LrCHI2 promoter W-box competitor, unlabeled (dsDNA)
DNA 1: GGCAAACTTTTAGGCCAAGAGATTGACTAGAACCCTCACAATCTCTATAT
DNA 2: ATATAGAGATTGTGAGGGTTCTAGTCAATCTCTTGGCCTAAAAGTTTGCC
B3: binds (LrWRKY2 [2]).
